Results reported in patent publication US12338268B2, “Compositions and methods for treating protein aggregation-associated diseases” (The Board of Trustees of the Leland Stanford Junior …, priority 2019, dated 2025).
Entries after “also recorded” stand apart in the source; their conditions may differ.

Legend:
[1] = target: T1, mutant Huntingtin exon 1 (mHttQ51) (Homo sapiens, UniProt P42858, INS38QQQQQQQQQQQQQQQQQQQQQQQQQQQQQQQ); test: In vitro filter trap aggregation assay of mutant Huntingtin exon 1; assay type: biochemical
T1 construct: mutant Huntingtin exon 1 containing a pathogenic stretch of 51 glutamines (mHttQ51); GST (N, cleaved yes); made in house; host or cells: E. coli Rosetta 2(DE3) pLysS
Protocol: (§1) Mutant Huntingtin and PolyQ51 aggregation reactions were performed at concentration 3 μM of mHttQ51, 0.044 Units/μl acTEV protease (Invitrogen, Carlsbad, CA, USA), and respective concentrations of Ovalbumin (Sigma) or purified NAC chaperone variants. Aggregation was conducted in TEV reaction buffer (Invitrogen) and incubated at 30° C. AtxQ78 was buffer exchanged into TEV reaction buffer using 7K MWCO Zeba Spin Desalting Columns (Thermo Fisher) to initiate aggregation. AtxQ78 aggregation reactions were performed at 30 μM of Ataxin-3 in reaction buffer (20 mM sodium phosphate pH 7.5, 25 mM NaCl, 6 mM MgCl2, 2 mM DTT, 5% (v/v) glycerol) and incubated at 37° C. Samples at varied time-points were then taken and combined in a 1:1 ratio with a 4% (w/v) SDS, 100 mM DTT solution, boiled for 5 min at 95° C., and stored at −20° C. Samples were then filtered through a 0.22 μm cellulose acetate membrane (Whatman) and washed with 0.1% (w/v) SDS. Membrane was probed using an S-tag antibody (Abcam) for mHttQ51 and PolyQ51, and with a His-tag antibody (Abcam) for AtxQ78.

[2] = target: GdmCl-denatured firefly luciferase (Photinus pyralis, UniProt P08659); test: Luciferase refolding assay; assay type: biochemical
AtxQ78 = target: T2, AtxQ78 (Homo sapiens, UniProt P54252, INS305QQQQQQQQQQQQQQQQQQQQQQQQQQQQQQQQQQQQQQQQQQQQQQQQQQQQQQQQQQQQQQQQ); test: Chemical crosslinking (BS3) and mass spectrometry of NAC-AtxQ78 complexes; assay type: binding; settings: NAC and AtxQ78 1:1, BS3 crosslinker, LC-MS
T2 construct: full-length Ataxin-3 harboring a stretch of 78 glutamines (AtxQ78); made in house
Protocol: For crosslinking AtxQ78 was buffer exchanged into 10 mM sodium phosphate (pH 7.2) and added to NAC at a 1:1 ratio (20 μM NAC+20 μM AtxQ78). A 1:1 mixture of BS^3-d^0 and BS^3-d^4 was added to the proteins at 20× and 50× molar excess and the reaction allowed to proceed at room temperature for 1 hour before quenching with the addition of 50 mM Tris-Cl (pH 7.5). Samples were diluted with 2× loading buffer and separated on Tris-tricine gels followed by staining with InstantBlue (Expedeon).
Gel pieces containing the crosslinked complexes were washed with 25 mM ammonium bicarbonate (pH 7.8) for 1 h with shaking. The solution was removed and the pieces destained three times with 25 mM ammonium bicarbonate in 60% acetonitrile. Gel pieces were dehydrated with 100% acetonitrile for 10 min and left to air-dry in a laminar flowhood for 1 h. Rehydration of the gel pieces was achieved by adding 0.1 mg/ml trypsin solution and incubating the samples on ice for 30 min. Excess trypsin was removed and the samples were incubated at 37° C. and 1000 rpm overnight. Peptides were extracted from the gel using 3 washes with 60% acetonitrile/5% formic acid. The extracts were pooled and concentrated using a SpeedVac before being analyzed using a nanoACQUITY LC-system coupled to a Synapt HDMS G2Si mass spectrometer. […]

[3] = target: T3, full-length Ataxin-3 (AtxQ78) (Homo sapiens, UniProt P54252, INS305QQQQQQQQQQQQQQQQQQQQQQQQQQQQQQQQQQQQQQQQQQQQQQQQQQQQQQQQQQQQQQQQ); test: Filter trap aggregation assay of AtxQ78; assay type: biochemical; settings: equimolar (1×) NAC, 37° C.
T3 construct: full-length Ataxin-3 harboring a stretch of 78 glutamines (AtxQ78); made in house
Protocol: as §1

Aβ40 [4] = target: T4, Aβ40 (Homo sapiens, UniProt P05067); test: Transmission electron microscopy of Aβ40 reaction endpoint; assay type: biochemical; settings: reaction endpoint at 20 h, equimolar NAC
T4 construct: Aβ40 peptide was expressed and purified as described previously; made in house; host or cells: E. coli BL21 (DE3)
Protocol: After 20 h, samples were taken from the Thioflavin T plate and fixed on carbon coated copper grids, made in house. The samples were negative stained with 2% (w/v) uranyl acetate. The samples were imaged on a JEOL 1400 TEM at the Astbury structural biology laboratory, University of Leeds.

PolyQ51 = test: In vitro filter trap aggregation assay of PolyQ51; assay type: biochemical; settings: 5× molar excess, SDS-insoluble aggregates
Protocol: as §1

Aβ40 [5] = target: T4, Aβ40; test: Thioflavin T fluorescence assay of Aβ40 aggregation; assay type: biochemical; settings: equimolar NAC variant and Aβ40 (32 μM FIG. 4C; 18 μM FIG. 12C), 37° C., 20 h
Protocol: Lyophilized Aβ40 was resuspended at 320 μM in 20 mM sodium phosphate pH 7.4, 0.2 mM EDTA, 0.01% (w/v) sodium azide and stored on ice. The NAC proteins were diluted to 100 μM in storage buffer (20 mM sodium phosphate pH 7.5, 25 mM NaCl, 6 mM MgCl2, 2 mM β-mercaptoethanol, 5% (v/v) glycerol) and buffer exchanged into 20 mM sodium phosphate pH 7.4, 0.2 mM EDTA, 0.01% (w/v) sodium azide, 1× complete mini protease inhibitor, EDTA free (Roche) by means of ZebaSpin 7 kDa MWCO spin columns (Thermo Scientific). Samples were prepared that contained equimolar concentrations of Aβ40 and NAC variants. Thioflavin T was added to a final concentration of 10 μM. The samples were transferred to a 96 well half-area clear bottom microplate (Corning GmbH, Wiesbaden, Germany), with 95 μL of sample in each well. The fluorescence (excitation: 440 nm, emission: 480 nm) was measured using a BMG Omega plate reader (BMG Labtech) incubating samples at 37° C., quiescently.

HttQ44-BodipyTMR = test: Fluorescence quenching assay of HttQ44-BodipyTMR aggregation; assay type: biochemical; settings: titrations of chaperones, 24-hour time period
From the text: FIGS. 17A-17B show a fluorescence quenching assay as a reporter for early events in Htt aggregation.
A fluorescence quenching assay was used to monitor aggregation of HttQ44-BodipyTMR with titrations of various chaperones over a 24-hour time period.

T1 sequence (P42858 with tags, fused parts or gaps with the stated changes limits assumed): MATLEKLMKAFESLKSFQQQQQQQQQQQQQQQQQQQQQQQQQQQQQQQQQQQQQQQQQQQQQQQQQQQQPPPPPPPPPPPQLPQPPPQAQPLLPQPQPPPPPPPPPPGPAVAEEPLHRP
GdmCl-denatured firefly luciferase, sequence (P08659 whole entry): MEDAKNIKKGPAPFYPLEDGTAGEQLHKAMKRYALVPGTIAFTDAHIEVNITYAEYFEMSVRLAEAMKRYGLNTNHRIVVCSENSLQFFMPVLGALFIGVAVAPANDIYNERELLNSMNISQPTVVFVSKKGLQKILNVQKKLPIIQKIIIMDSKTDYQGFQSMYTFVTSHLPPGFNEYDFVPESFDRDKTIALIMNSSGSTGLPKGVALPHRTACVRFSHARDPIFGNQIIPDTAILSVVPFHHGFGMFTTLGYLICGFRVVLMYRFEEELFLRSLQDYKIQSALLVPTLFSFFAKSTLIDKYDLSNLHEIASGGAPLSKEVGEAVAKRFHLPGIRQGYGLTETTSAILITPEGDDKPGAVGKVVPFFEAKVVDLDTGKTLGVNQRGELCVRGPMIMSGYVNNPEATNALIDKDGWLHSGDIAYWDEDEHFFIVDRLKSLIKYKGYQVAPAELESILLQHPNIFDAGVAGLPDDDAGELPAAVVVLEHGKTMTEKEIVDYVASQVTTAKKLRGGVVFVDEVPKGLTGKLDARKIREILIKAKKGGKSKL
T3 sequence (P54252 with tags, fused parts or gaps with the stated changes): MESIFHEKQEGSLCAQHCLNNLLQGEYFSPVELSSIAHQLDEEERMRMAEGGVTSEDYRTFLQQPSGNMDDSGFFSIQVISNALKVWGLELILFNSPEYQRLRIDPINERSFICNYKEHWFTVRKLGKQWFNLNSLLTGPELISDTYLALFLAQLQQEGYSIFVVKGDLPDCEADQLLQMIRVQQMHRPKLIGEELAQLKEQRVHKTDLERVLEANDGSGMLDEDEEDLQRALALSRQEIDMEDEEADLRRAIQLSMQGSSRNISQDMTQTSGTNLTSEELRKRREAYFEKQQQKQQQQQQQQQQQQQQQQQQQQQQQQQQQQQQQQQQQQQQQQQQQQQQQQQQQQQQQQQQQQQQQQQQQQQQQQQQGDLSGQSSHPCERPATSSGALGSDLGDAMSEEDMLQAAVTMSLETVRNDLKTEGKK
T2 sequence (P54252 with tags, fused parts or gaps with the stated changes): as above
HttQ44-BodipyTMR, sequence (P42858 with tags, fused parts or gaps with the stated changes limits assumed): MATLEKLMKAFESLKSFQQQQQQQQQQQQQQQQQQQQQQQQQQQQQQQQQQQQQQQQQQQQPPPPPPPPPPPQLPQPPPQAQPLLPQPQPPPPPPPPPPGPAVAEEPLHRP

B1: human NAC: purified recombinant human nascent polypeptide-associated complex (αNAC and βNAC 1:1) (protein)
chain 1: MTGSTETRQKEVKEPQVDVSDDSDNEAVEQELTEEQRRVAEAAGLGDHIDKQAKQSRSEKKARKLFSKLGLKQVTGVSRVCIRKSKNILFVINKPDVFKSPGSDTYIIFGEAKIEDLTQHAQMSAIENLKPTREAPQLKTVEEDENEDVEEDSTGIEEKDIELVISQANTTRNKAIRALKEADNDIVNAIMSLTM
chain 2: MMDSKAIAERIKKLQAQQEHVRIGGKGTPRRKKKVIHKTAAADDKKLQSNLKKLSVTNIPGIEEVNMIKDDGTVIHFNNPKVQTSVPANTFSVTGSADNKQITEMLPGILNQLGPESLTHLKKLANNVTKLGPDGKGEDEDVPELVGDFDAASKNETKADEQ
With B1 the mHttQ51 aggregation ([1]; 5× molar excess, 3 μM mHttQ51, filter trap, SDS-insoluble aggregates) was “effectively suppressed aggregation”, the luciferase refolding ([2]; NAC added to the Hsp70/Hsp40 system (3.2 μM/0.8 μM), no preincubation) was “did not enhance luciferase refolding” and the luciferase refolding ([2]; NAC alone, absence of Hsp70/Hsp40, luciferase 0.02 μM, equimolar NAC) was “had no effect on luciferase refolding”. For the same molecule, the “identified intermolecular crosslinks to the C-terminal region of AtxQ78 close to the expanded PolyQ stretch” value (AtxQ78) was 11 out of 18, the AtxQ78 aggregation [3] was “delayed the aggregation of AtxQ78” and the “Aβ40 fibril formation (electron microscopy)” value (Aβ40 [4]) was “completely suppressed Aβ40 aggregation and fibril formation”. For the same molecule, the “accumulation of PolyQ51 aggregates” value (PolyQ51) was “strongly delayed the accumulation of PolyQ51 aggregates” and the “Aβ40 aggregation (ThT fluorescence)” value (Aβ40 [5]) was “completely suppressed Aβ40 aggregation”.

B2: ApiCCT1-bNAC: fusion protein comprising the apical domain of CCT1 fused with the bNAC N-terminal sequence at its C-terminus (protein)
chain: MGVPGYALNCTVASQAMPKRIAGGNVKIACLDLNLQKARMAMGVQINIDDPEQLEQIRKREAGIVLERVKKIIDAGAQVVLTTKGIDDLCLKEFVEAKIMGVRRCKKEDLRRIARATGATLVSSMSNLEGEETFESSYLGLCDEVVQAKFSDDECILIKGTSKAAAAALEGGSGGSMKETIMNQEKLAKLQAQVRIGGKGTARRKKKVVHRTAT
In the case of B2, the “HttQ51 aggregation, titration” value ([1]; ApiCCT1-bNAC from 15 μM to 0.03 μM, Htt 3 μM, filter trap) is reported as “can suppress HttQ51 aggregation at sub-molar concentrations”, the “polyQ aggregation of huntingtin exon1” value ([1]; system with purified components, listed as fused protein) is reported as “works even more potently to inhibit huntingtin exon1 aggregation; also recorded: can suppress aggregation even at sub-molar ratios” and the “Htt aggregation over time (fluorescence quenching)” value (HttQ44-BodipyTMR) is reported as “better and more stably suppresses Htt aggregation overtime compared to the ApiCCT1 and bNAC N-terminal domain individually”.
